Measurements published in PMC4029802, “PKCε Promotes HuD-Mediated Neprilysin mRNA Stability and Enhances Neprilysin-Induced Aβ Degradation in Brain Neurons”.

Target: HuD (UniProt P26378 1-385)
Experiment: EMSA; 2 uM HuD, 125 nM probe; complex specificity confirmed with unlabeled competitor oligoriboprobe; 10 mM HEPES pH 7.3, 20 mM KCl, 1 mM MgCl2, 1 mM DTT, 5% glycerol, 2 ug/ml tRNA, 30 min, room temperature; 6% native PAGE, 0.5X TBE
Conditions: protein: commercial; label: 3'-biotin

Chain of HuD (P26378 whole entry): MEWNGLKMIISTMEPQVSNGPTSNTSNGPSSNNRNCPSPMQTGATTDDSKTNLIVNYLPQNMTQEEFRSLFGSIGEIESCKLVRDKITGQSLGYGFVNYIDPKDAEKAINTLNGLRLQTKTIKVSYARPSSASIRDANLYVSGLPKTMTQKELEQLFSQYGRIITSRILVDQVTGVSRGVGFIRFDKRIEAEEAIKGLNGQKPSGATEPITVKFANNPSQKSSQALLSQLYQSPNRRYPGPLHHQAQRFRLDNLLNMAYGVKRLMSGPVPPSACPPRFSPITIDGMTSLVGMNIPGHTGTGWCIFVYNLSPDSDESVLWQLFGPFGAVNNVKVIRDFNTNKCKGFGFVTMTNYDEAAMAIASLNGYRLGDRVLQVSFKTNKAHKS

B1: NEP mRNA 3'-UTR ARE oligoribonucleotide (ssRNA)
RNA: UUCUGUGAUCAUUUAUUUUAAGCACUC
  binding result: binds
